Results: patent US20180335433A1, “COMPOSITIONS TARGETING PKC-THETA AND USES AND METHODS OF TREATING PKC-THETA PATHOLOGIES, ADVERSE IMMUNE RESPONSES AND DISEASES” (La Jolla Institute for Allergy and Immunology, priority 2011, published 2018)

Assays:
[1] = tested on: Th1-mediated lung inflammation; experiment: Th1-mediated Ova-induced airway inflammation after adoptive transfer of transduced Th1 effector cells; assay type: in vivo, mouse; settings: transferred Th1 effector cells
Source text: (§1) (FIG. 7A-7D) OT-II CD4^+ T cells stimulated with anti-CD3 plus anti-CD28 mAbs and differentiated in vitro under Th2 (FIG. 7A-7C) or Th1 (FIG. 7D, 7E)-polarizing conditions were retrovitrally transduced with the same PKCθ V3 vectors as in FIG. 6. Sorted GFP^+ populations were adoptively transferred into naïve B6 mice, which were challenged with aerosolized Ova for 3 consecutive days. BAL fluid were obtained 1 d post-challenge and analyzed for total mononuclear cell infiltration (FIG. 7A, 7D) and cytokine expression using IL-4 (FIG. 7B), IL-5 (FIG. 7C) and IFN-γ (FIG. 7E) ELISA.
(§2) CD4^+ T cells from OT-II B6 mice were isolated and cultured with plate-bound anti-CD3 (5 μg/ml), soluble anti-CD28 (2.5 μg/ml) and IL-2 (100 U/ml) under Th1 or Th2 polarizing conditions. The cells were retrovirally infected on days 2-4 and cultured for an additional 3 days. GFP^+ cells were sorted, and 1×10^6 cells were injected intravenously into naïve WT B6 mice. One day later, mice received aerosolized Ova (5 mg/ml in 20 ml PBS) for 30 min, once a day for 3 consecutive days, using ultrasonic nebulization. Mice were sacrificed 24 h after the last challenge and assessed for lung inflammation. Collection of BAL fluid and determination of cytokine levels were carried out as described (Salek-Ardakani, S. et al. J Immunol 173, 6440-6447 (2004)).

endogenous PKCθ = experiment: IS localization in OT-II CD4+ T cells conjugated with Ova-loaded APCs (confocal); assay type: cell-based, mouse; settings: OT-II TCR-Tg CD4+ T cells
Procedure: (FIG. 6A) OT-II CD4^+ T cells were infected with retrovirus expressing Myc-tagged V3 domain, V3 mutated at P330/1/4/6A (V3-4PA), or PR motif-deleted V3 (V3-ΔPR). Infected cells (green) were harvested, stimulated, and fixed. Conjugates were stained with anti-Myc plus a secondary Alexa 555-coupled antibody (orange), and anti-PKCθ plus a secondary Alexa 647-coupled antibody (red). Cells were analyzed as in FIG. 1A. (FIG. 6B) Quantitative analysis of the results shown in (FIG. 6A) from 30-50 T-APC conjugates. ** p<0.05. (FIG. 6C) MCC-specific T hybridoma cells were cotransfected with indicated vector, together with RE/AP-Luc and β-Gal reporter plasmids. Cells were stimulated and analyzed as in FIG. 1C. (FIG. 6D) Naïve CD4^+ T cells from B6 mice stimulated with anti-CD3 plus anti-CD28 mAbs and differentiated in vitro under Th1-, Th2- or Th17-polarizing conditions were retrovirally transduced with empty pMIG vector, or with the indicated PKCθ V3 vectors. Cytokine-producing cells were analyzed by intracellular staining 8 h after restimulation. Right panels represent cumulative data showing percentage of cytokine-producing cells by intracellular staining. (FIG. 6E) MCC-specific T hybridoma cells were cotransfected with the indicated plasmids, together with NFAT luciferase reporter and a β-Gal reporter plasmid. Cells were incubated with fibroblasts that express I-E^K and B7-1 in the absence or presence of MCC peptide for 6 hrs. Normalized luciferase activity was determined in triplicates.
Full-length human PKCθ and its derivatives were cloned as a GFP fusion protein in the pMX retroviral vector. Retroviral supernatants were used to infect preactivated CD4^+ T cells from PKCθ^−/− or WT OT-II mice. Transduced cells were rested for an additional three days. On the day of experiment, APC were prepared from WT B6 splenocytes that were depleted of CD4^+ T cells using anti-CD4 (L3T4) mAb-coated beads. T-depleted APC were stained with 20 μM of cell tracker blue (CMAC) and then pulsed with 5 μM Ova peptide, respectively, for 30 min at 37° C. T cell-APC conjugation was carried out at 37° C. for 20 min before fixation with 4% paraformaldehyde and permeabilization with PBS supplemented with 1% BSA and 0.1% Triton X-100. […] Immunofluorescene images were captured using a Marianas digital fluorescence-microscopy system (Intelligent Imaging Innovations) as described (Becart, S. et al. Immunity 29, 704-719 (2008)).
Given the critical role of the PKCθ V3 domain in the enzyme's CD28 association, IS localization, and activation of downstream targets, ectopic expression of the isolated V3 domain was analyzed for interference with the localization and function of PKCθ in stimulated T cells. […]

[2] = tested on: Th2-mediated lung inflammation; experiment: Th2-mediated Ova-induced airway inflammation after adoptive transfer of transduced OT-II Th2 cells; assay type: in vivo, mouse; settings: transferred Th2 cells, aerosolized Ova 3 consecutive days
Source text: as §1, §2
The above findings were extended to an in vivo antigen-specific inflammatory response in an airway inflammation model, using a T cell adoptive transfer system. Mice receiving OT-II Th2 cells transduced with an empty vector developed an inflammatory response by comparison with PBS-challenged control mice, as evidenced by a significant increase in the number of infiltrating leukocytes in the bronchoalveolar lavages (BAL) fluid (FIG. 7a) and in the levels of signature Th2 cytokines, IL-4 (FIG. 7b) and IL-5 (FIG. 7c).

[3] = tested on: Naïve CD4+ T cells from B6 mice, Treg (FoxP3+) cells; experiment: In vitro Treg (FoxP3+) differentiation of retrovirally transduced CD4+ T cells; assay type: cell-based, mouse; settings: Treg-polarizing conditions (IL-2+TGFβ), GFP+FoxP3+ cells
Procedure: Naïve CD4+ T cells from B6 mice stimulated with anti-CD3 plus anti-CD28 mAbs and differentiated in vitro under Treg-polarizing conditions (IL-2+TGFβ) were retrovirally transduced with empty pMIG vector, or with the indicated PKCθ V3 vectors. Transduced (GFP+) cells were sorted and FoxP3+ cells were analyzed by intracellular staining.
Naïve CD4^+ T cells from B6 mice stimulated with anti-CD3 plus anti-CD28 mAbs and differentiated in vitro under Treg-polarizing conditions (IL-2+TGFβ) were retrovirally transduced with empty pMIG vector, or with the indicated PKCθ V3 vectors. Transduced (GFP+) FoxP3+ cells were analyzed by intracellular staining 8 hours after restimulation. Right panels represent cumulative data showing percentage of GFP+FoxP3+ cells by intracellular staining.

B1: V3 domain: amino acid 282-379 of human PKCθ with N-terminal Myc tag, expressed from pMIG retroviral vector (protein)
chain: GINQKLMAEALAMIESTQQARCLRDTEQIFREGPVEIGLPCSIKNEARPPCLPTPGKREPQGISWESPLDEVDKMCHLPEPELNKERPSLQIKLKIED
modifications: left off: small tags and cut ends
notes: amino acid 282-379 of human PKCθ with N-terminal Myc tag, expressed from pMIG retroviral vector
inhibition of the Th1 lung inflammation response (leukocyte infiltration, IFN-γ in BAL fluid) [1]: did not inhibit
effect on IS localization of endogenous PKCθ (endogenous PKCθ): sequestered from the IS
subcellular localization of the transduced V3 protein (endogenous PKCθ): translocated to and selectively localized in the IS
levels of Th2 cytokines (IL-4, IL-5) in BAL fluid [2]: to basal levels
levels of infiltrating cells in BAL fluid [2]: to basal levels
promotion of Treg differentiation [3]: ~4 fold
